Each block holds one binder with its values, some of them ahead of it.
Tests used:
[1] = molecular target: T1, cation-independent mannose-6-phosphate receptor (CI-M6PR), as used in the in vitro receptor binding assay …; test: in vitro CI-M6PR binding assay
[2] = molecular target: T1, cation-independent mannose-6-phosphate …; test: ELISA, CI-M6PR binding, detection with antibody to human Naglu
[3] = molecular target: cation-independent mannose-6-phosphate receptor (CI-M6PR) on cells overexpressing CI-M6PR; test: cellular uptake assay on cells overexpressing CI-M6PR, intracellular Naglu activity read-out

- Kd [1]: ~65 nM
B1: recombinant human Naglu (rhNaglu) produced in HT-1080 cells overexpressing GNPT (enzyme)
chain: DEAREAAAVRALVARLLGPGPAADFSVSVERALAAKPGLDTYSLGGGGAARVRVRGSTGVAAAAGLHRYLRDFCGCHVAWSGSQLRLPRPLPAVPGELTEATPNRYRYYQNVCTQSYSFVWWDWARWEREIDWMALNGINLALAWSGQEAIWQRVYLALGLTQAEINEFFTGPAFLAWGRMGNLHTWDGPLPPSWHIKQLYLQHRVLDQMRSFGMTPVLPAFAGHVPEAVTRVFPQVNVTKMGSWGHFNCSYSCSFLLAPEDPIFPIIGSLFLRELIKEFGTDHIYGADTFNEMQPPSSEPSYLAAATTAVYEAMTAVDTEAVWLLQGWLFQHQPQFWGPAQIRAVLGAVPRGRLLVLDLFAESQPVYTRTASFQGQPFIWCMLHNFGGNHGLFGALEAVNGGPEAARLFPNSTMVGTGMAPEGISQNEVVYSLMAELGWRKDPVPDLAAWVTSFAARRYGVSHPDAGAAWRLLLRSVYNCSGEACRGHNRSPLVRRPSLQMNTSIWYNRSDVFEAWRLLLTSAPSLATSPAFRYDLLDLTRQAVQELVSLYYEEARSAYLSKELASLLRAGGVLAYELLPALDEVLASDSRFLLGSWLEQARAAAVSEAEADFYEQNSRYQLTLWGPEGNILDYANKQLAGLVANYYTPRWRLFLEALVDSVAQGIPFQQHQFDKNVFQLEQAFVLSKQRYPSQPRGDTVDLAKKIFLKYYPRWVAGSW
modifications: M6P on N-linked glycans enhanced by co-expression with GNPT
notes: Same polypeptide as rhNaglu; It differs in being co-expressed with GNPT; also called GNPT/rhNaglu; rhNaglu produced using a GNPT overexpressing cell line

- Kd [1]: 0.24 nM
- Kd [2]: ~0.21 nM
- fold higher affinity than Naglu-SapDC produced in GNPT overexpressing cells [3]: 3.6 fold
B2: Naglu-IGFII fusion protein (produced in HT-1080 cells) (enzyme)
chain: DEAREAAAVRALVARLLGPGPAADFSVSVERALAAKPGLDTYSLGGGGAARVRVRGSTGVAAAAGLHRYLRDFCGCHVAWSGSQLRLPRPLPAVPGELTEATPNRYRYYQNVCTQSYSFVWWDWARWEREIDWMALNGINLALAWSGQEAIWQRVYLALGLTQAEINEFFTGPAFLAWGRMGNLHTWDGPLPPSWHIKQLYLQHRVLDQMRSFGMTPVLPAFAGHVPEAVTRVFPQVNVTKMGSWGHFNCSYSCSFLLAPEDPIFPIIGSLFLRELIKEFGTDHIYGADTFNEMQPPSSEPSYLAAATTAVYEAMTAVDTEAVWLLQGWLFQHQPQFWGPAQIRAVLGAVPRGRLLVLDLFAESQPVYTRTASFQGQPFIWCMLHNFGGNHGLFGALEAVNGGPEAARLFPNSTMVGTGMAPEGISQNEVVYSLMAELGWRKDPVPDLAAWVTSFAARRYGVSHPDAGAAWRLLLRSVYNCSGEACRGHNRSPLVRRPSLQMNTSIWYNRSDVFEAWRLLLTSAPSLATSPAFRYDLLDLTRQAVQELVSLYYEEARSAYLSKELASLLRAGGVLAYELLPALDEVLASDSRFLLGSWLEQARAAAVSEAEADFYEQNSRYQLTLWGPEGNILDYANKQLAGLVANYYTPRWRLFLEALVDSVAQGIPFQQHQFDKNVFQLEQAFVLSKQRYPSQPRGDTVDLAKKIFLKYYPRWVAGSWGAPGGGGGAAAAAGGGGGGAPGGGGGAAAAAGGGGGGAPGGGGGAAAAAGGGGGGAPLCGGELVDTLQFVCGDRGFYFSRPASRVSRRSRGIVEECCFRSCDLALLETYCATPAKSE
notes: Purified from conditioned medium

- Kd [2]: 32.4 nM
B3: Naglu-LIF fusion protein (produced in HT-1080 cells) (enzyme)
chain: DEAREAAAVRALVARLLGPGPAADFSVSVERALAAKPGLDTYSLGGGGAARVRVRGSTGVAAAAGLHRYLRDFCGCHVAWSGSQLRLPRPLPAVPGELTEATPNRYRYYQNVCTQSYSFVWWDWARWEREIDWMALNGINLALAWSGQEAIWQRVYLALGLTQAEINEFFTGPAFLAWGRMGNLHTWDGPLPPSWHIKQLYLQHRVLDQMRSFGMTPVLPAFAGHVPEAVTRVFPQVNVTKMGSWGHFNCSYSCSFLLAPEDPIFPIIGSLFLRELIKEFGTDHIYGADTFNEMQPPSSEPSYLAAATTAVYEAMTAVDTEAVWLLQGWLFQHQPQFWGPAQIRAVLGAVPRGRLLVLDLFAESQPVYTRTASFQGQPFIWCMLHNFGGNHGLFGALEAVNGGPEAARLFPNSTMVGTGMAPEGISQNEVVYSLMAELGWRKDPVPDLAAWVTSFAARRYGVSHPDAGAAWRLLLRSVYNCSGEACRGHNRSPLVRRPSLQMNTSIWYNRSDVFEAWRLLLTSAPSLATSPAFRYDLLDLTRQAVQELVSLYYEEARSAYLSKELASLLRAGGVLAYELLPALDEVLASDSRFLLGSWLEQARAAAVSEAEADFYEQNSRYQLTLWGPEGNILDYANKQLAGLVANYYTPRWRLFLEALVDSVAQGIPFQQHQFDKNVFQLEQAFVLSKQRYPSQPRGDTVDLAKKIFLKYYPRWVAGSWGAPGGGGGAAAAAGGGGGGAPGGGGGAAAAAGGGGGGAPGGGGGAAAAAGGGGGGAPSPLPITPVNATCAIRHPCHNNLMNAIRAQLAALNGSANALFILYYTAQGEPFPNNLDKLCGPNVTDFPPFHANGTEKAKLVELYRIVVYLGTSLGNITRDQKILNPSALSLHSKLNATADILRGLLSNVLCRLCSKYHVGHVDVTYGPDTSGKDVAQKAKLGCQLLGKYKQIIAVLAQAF
modifications: N-linked glycosylation sites in the LIF part marked (N); by anti-M6P Western blot not M6P-phosphorylated in any detectable manner when overexpressed alone
